According to doi:10.1101/2023.08.22.554218 (bioRxiv, 2023):

Target: T1, Recombinant human PDZD8 (1,28-) - FLAG (human, UniProt Q8NEN9 1-1154, (1, 28-))
T1 sequence (looked up): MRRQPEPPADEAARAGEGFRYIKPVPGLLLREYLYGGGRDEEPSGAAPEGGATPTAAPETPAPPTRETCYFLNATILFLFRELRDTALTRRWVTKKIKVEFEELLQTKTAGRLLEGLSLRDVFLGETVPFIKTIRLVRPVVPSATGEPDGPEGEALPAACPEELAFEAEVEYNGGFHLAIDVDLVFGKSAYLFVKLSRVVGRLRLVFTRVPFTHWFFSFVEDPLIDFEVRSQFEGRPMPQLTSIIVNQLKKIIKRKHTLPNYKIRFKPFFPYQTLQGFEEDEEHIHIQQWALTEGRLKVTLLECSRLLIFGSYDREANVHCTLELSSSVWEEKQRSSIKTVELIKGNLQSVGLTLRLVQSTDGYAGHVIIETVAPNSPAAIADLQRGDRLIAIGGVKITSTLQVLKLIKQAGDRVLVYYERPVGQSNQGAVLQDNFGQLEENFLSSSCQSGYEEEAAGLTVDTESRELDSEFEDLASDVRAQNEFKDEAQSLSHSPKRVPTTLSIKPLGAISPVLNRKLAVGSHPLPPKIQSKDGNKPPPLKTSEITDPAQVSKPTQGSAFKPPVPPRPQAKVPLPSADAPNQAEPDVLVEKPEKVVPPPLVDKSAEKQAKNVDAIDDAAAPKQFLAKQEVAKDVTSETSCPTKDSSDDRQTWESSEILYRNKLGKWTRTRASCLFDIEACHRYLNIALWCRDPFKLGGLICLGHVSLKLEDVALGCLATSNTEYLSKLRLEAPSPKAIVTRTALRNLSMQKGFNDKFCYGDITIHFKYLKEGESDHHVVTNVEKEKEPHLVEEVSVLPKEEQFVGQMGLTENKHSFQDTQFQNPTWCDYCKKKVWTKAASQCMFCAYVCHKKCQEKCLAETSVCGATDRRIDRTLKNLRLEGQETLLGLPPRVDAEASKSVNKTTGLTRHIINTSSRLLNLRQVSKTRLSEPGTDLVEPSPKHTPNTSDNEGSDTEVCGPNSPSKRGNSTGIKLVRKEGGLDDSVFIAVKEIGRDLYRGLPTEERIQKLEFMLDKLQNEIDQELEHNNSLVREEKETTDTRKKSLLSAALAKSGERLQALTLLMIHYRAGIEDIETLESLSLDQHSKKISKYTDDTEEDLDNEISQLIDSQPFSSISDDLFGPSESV
Assay: SPR

B1: Recombinant human FKBP8 (1-380) - Histag (domain or fragment, UniProt Q14318 1-380, looked up)
chain: MASCAEPSEPSAPLPAGVPPLEDFEVLDGVEDAEGEEEEEEEEEEEDDLSELPPLEDMGQPPAEEAEQPGALAREFLAAMEPEPAPAPAPEEWLDILGNGLLRKKTLVPGPPGSSRPVKGQVVTVHLQTSLENGTRVQEEPELVFTLGDCDVIQALDLSVPLMDVGETAMVTADSKYCYGPQGRSPYIPPHAALCLEVTLKTAVDGPDLEMLTGQERVALANRKRECGNAHYQRADFVLAANSYDLAIKAITSSAKVDMTFEEEAQLLQLKVKCLNNLAASQLKLDHYRAALRSCSLVLEHQPDNIKALFRKGKVLAQQGEYSEAIPILRAALKLEPSNKTIHAELSKLVKKHAAQRSTETALYRKMLGNPSRLPAKCPG
- Kd: 142 µM
